The values below come from paper PMC4199108 (Nature Communications, 2014).

The target in test [1] is T1, phosphorylated rhodopsin (Meta II) (Bos taurus, UniProt P02699). In words: Extra Meta II assay: stabilization of Meta II by peptide, UV-visible absorption. It is filed as binding, bovine. The note with it: 10 μM ROS-P, 100 mM HEPES pH 8.0, 0 °C, 380-nm absorbance.
In test [2] the target is phosphorylated opsin (OpsP) (Bos taurus, UniProt P02699). The format is binding, bovine. To be noted: 1 μM arrestin A366NBD + 2 μM OpsP, 50 mM HEPES pH 7.0, 22 °C.
The target in test [3] is phosphorylated opsin (OpsP) in membranes (bovine, UniProt P02699 1-348, phosphorylated by native rhodopsin kinase (sites not given)). In words: co-sedimentation.
For test [4], the target named is T1, phosphorylated rhodopsin (Meta II). To be noted: 380-nm-absorbing Meta II; cited from earlier work.

Residues, ends and D or L forms follow the SMILES beside them.

phosphorylated opsin (OpsP) in membranes, sequence (P02699 whole entry): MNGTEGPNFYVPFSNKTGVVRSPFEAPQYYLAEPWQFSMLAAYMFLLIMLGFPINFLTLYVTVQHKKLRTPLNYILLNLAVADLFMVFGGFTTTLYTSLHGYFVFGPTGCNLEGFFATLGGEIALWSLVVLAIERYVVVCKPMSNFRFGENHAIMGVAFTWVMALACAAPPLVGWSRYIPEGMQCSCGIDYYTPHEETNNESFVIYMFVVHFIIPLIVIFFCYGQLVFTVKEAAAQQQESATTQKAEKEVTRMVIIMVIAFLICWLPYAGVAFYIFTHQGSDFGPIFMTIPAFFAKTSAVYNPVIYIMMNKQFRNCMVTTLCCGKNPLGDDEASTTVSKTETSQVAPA
T1 sequence (P02699 whole entry): as above
phosphorylated opsin (OpsP), sequence (P02699 whole entry): as above

In the case of `CC[C@H](C)[C@H](NC(=O)[C@H](CC(=O)O)NC(=O)[C@H](CCC(=O)O)NC(=O)[C@H](CCC(N)=O)NC(=O)CNC(=O)[C@@H](N)Cc1ccc(O)cc1)C(=O)N[C@@H](CC(=O)O)C(=O)N[C@H](C(=O)N[C@@H](CCSC)C(=O)NCC(=O)N[C@@H](CC(C)C)C(=O)O)C(C)C` [ArrFL-1] (H-YGQEDIDVMGL-OH), in test [1], the “Stabilization of Meta II / Extra Meta II formation (in words)” value is reported as “stabilized the 380-nm-absorbing Meta II species over Meta I”. As to QRMHLRQYELL [GsαCT], the “Stabilization of Meta II / Extra Meta II formation (in words)” value in test [1] is “did not stabilize Meta II”. The “Competition for arrestin binding to phosphorylated opsin (in words)” value in test [2] is given as “showed no competition for arrestin binding to phosphorylated opsin”.

As for YGREDLDVLGL [ArrFL-2/3, finger loop peptide of beta-arrestin-1 and beta-arrestin-2], the Kd (in general, the concentration at which binding is half-saturated) in test [3] amounted to 2400 µM.

B1: arrestin: full-length rod photoreceptor arrestin (protein)
chain: MKANKPAPNHVIFKKISRDKSVTIYLGKRDYIDHVERVEPVDGVVLVDPELVKGKRVYVSLTAAFRYGQEDIDVMGLSFRRDLYFSQVQVFPPVGASGATTRLQESLIKKLGANTYPFLLTFPDYLPSSVMLQPAPQDVGKSAGVDFEIKAFATHSTDVEEDKIPKKSSVRLLIRKVQHAPRDMGPQPRAEASFQFFMSDKPLRLAVSLSKEIYYHGEPIPVTVAVTNSTEKTVKKIKVLVEQVTNVVLYSSDYYIKTVAAEEAQEKVPPNSSLTKTLTLVPLLANNRERRGIALDGKIKHEDTNLASSTIIKEGIDKTVMGILVSYQIKVKLTVSGLLGELTSSEVATEVPFRLMHPQPEDPDTCKESFQDENFVFEEFARQNLKDAGEYKEEKTDQEAAMDE
modifications: NBD label on the single cysteine A366C
B1: the “Stabilization of Meta II species over Meta I” value in test [4] is recorded as “stabilized the 380-nm-absorbing Meta II species over Meta I”. In test [3], YGQEDIDVMGL [ArrFL-1, peptide analogue of the finger loop of rod photoreceptor arrestin] yielded a Kd of 1700 µM. Molecule IKENLKDCGLF [GtαCT, wild-type Gtα C-terminal peptide] yielded a dissociation constant (Kd) in test [3] of 880 µM. In test [3], ILENLKDCGLF [GtαCT-HA, high-affinity version of the Gtα C-terminal peptide] had a Kd of 320 µM.
